For assay [1], the target named is human collagen type I (human) (UniProt P02452). The experiment in a line: dried collagen assay, 5 uM peptide.
Assay [2] addresses rat collagen type I (rat) (UniProt P02454). The assay is described as follows: dried collagen assay, 5 uM peptide.
The target in assay [3] is T1, Compound ID No 1014.
T1 chain: KKWHCYTYFPHHYCVYG
The experiment in a line: competition in the dried collagen assay: 1.6 uM soluble competitor protein, 5 uM Comp ID No 1014, 5 uM insoluble type I rat collagen.

The target of assay [4] is T1, Compound ID No 1014. The assay is described as follows: competition in the dried collagen assay: 1.6 uM soluble competitor protein, 5 uM Comp ID No 1014, 5 uM insoluble type I human collagen.

Bridge positions count the residues as written; N and C are the ends. Square brackets hold non-standard residues; d marks the D form. Ends that are not written are not given here.

Chain of rat collagen type I (rat) (P02454 152-1207, chain 1 of 2): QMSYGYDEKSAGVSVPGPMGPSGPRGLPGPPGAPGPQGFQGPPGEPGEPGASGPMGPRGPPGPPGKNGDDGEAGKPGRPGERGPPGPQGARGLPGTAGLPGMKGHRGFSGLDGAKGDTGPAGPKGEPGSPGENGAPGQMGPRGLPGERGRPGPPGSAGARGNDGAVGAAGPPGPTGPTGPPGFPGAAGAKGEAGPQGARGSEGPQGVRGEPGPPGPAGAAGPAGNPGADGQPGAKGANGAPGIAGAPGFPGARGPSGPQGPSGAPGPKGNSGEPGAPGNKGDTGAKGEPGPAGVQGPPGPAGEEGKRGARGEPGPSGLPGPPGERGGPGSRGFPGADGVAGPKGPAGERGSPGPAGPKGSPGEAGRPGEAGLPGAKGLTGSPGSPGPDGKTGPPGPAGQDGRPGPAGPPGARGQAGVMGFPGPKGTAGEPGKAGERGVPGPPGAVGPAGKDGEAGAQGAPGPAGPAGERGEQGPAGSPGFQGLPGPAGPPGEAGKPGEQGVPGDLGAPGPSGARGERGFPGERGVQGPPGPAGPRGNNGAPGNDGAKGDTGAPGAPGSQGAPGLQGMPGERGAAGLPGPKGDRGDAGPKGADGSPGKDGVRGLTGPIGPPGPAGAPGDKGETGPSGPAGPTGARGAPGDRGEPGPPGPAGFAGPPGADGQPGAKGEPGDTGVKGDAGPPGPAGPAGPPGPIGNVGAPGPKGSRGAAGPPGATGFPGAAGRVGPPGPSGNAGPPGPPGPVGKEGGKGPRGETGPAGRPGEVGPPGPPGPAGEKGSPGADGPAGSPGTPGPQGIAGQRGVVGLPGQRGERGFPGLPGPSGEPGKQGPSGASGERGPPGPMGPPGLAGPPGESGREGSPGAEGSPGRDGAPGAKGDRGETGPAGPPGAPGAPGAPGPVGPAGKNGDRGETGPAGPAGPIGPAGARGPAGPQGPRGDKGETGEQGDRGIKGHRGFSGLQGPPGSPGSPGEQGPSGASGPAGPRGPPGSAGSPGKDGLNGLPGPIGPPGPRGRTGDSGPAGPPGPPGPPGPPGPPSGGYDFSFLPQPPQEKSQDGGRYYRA
Chain of rat collagen type I (rat) (P02466 86-1125, chain 2 of 2, further chain): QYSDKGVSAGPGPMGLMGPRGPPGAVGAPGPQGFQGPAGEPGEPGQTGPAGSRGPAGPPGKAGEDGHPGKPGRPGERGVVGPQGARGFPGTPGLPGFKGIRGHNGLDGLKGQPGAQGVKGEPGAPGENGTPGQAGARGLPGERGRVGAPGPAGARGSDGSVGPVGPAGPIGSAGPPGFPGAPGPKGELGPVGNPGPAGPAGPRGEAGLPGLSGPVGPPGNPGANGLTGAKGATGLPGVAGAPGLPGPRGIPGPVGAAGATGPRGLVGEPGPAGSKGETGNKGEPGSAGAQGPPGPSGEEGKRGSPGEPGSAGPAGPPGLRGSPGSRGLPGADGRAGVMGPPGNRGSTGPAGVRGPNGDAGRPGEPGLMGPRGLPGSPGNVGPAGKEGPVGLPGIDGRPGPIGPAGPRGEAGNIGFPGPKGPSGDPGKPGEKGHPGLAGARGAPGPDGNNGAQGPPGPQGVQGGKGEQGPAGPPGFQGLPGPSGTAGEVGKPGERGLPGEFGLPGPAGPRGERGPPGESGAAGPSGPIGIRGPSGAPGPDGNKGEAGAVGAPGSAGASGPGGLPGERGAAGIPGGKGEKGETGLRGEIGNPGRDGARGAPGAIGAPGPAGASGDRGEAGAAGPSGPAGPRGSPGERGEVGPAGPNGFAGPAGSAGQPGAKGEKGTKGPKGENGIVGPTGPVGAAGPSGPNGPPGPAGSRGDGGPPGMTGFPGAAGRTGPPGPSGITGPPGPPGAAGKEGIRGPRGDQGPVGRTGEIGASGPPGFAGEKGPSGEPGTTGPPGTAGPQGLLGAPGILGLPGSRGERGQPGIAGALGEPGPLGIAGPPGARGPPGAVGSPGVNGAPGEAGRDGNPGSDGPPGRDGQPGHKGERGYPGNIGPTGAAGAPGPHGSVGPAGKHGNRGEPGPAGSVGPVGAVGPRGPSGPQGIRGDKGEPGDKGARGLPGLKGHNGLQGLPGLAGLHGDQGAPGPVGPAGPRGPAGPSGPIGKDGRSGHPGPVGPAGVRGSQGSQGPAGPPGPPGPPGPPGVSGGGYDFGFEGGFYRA
Chain of human collagen type I (human) (P02452 162-1218 limits assumed, chain 1 of 2): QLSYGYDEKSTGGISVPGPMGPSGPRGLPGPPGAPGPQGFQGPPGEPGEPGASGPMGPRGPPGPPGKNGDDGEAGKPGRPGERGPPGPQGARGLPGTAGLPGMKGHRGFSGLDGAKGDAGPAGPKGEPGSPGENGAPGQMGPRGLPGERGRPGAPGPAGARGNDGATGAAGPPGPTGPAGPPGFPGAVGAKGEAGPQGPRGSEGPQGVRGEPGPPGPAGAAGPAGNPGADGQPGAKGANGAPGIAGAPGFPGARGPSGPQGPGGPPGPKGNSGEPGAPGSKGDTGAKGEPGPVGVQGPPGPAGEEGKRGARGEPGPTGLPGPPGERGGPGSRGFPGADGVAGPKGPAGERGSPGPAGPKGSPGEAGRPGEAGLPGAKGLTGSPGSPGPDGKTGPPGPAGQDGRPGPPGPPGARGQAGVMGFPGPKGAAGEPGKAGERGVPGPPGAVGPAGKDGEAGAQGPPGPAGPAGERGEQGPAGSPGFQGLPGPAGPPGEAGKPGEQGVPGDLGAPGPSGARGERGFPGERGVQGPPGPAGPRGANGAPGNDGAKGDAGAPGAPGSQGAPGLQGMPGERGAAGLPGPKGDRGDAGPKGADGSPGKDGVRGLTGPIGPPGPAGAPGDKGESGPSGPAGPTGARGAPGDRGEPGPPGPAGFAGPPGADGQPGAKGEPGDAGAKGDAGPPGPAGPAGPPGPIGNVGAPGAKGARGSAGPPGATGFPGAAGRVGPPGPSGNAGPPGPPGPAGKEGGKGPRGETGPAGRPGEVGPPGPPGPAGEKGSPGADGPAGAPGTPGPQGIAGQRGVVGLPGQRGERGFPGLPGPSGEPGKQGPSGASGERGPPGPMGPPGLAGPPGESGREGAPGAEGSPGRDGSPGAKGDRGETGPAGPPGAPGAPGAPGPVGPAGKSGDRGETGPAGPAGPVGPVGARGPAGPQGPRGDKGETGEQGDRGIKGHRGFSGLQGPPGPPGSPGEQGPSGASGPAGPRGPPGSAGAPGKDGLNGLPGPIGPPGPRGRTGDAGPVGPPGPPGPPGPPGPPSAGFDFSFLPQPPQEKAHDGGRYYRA
Chain of human collagen type I (human) (P08123 80-1119 limits assumed, chain 2 of 2, further chain): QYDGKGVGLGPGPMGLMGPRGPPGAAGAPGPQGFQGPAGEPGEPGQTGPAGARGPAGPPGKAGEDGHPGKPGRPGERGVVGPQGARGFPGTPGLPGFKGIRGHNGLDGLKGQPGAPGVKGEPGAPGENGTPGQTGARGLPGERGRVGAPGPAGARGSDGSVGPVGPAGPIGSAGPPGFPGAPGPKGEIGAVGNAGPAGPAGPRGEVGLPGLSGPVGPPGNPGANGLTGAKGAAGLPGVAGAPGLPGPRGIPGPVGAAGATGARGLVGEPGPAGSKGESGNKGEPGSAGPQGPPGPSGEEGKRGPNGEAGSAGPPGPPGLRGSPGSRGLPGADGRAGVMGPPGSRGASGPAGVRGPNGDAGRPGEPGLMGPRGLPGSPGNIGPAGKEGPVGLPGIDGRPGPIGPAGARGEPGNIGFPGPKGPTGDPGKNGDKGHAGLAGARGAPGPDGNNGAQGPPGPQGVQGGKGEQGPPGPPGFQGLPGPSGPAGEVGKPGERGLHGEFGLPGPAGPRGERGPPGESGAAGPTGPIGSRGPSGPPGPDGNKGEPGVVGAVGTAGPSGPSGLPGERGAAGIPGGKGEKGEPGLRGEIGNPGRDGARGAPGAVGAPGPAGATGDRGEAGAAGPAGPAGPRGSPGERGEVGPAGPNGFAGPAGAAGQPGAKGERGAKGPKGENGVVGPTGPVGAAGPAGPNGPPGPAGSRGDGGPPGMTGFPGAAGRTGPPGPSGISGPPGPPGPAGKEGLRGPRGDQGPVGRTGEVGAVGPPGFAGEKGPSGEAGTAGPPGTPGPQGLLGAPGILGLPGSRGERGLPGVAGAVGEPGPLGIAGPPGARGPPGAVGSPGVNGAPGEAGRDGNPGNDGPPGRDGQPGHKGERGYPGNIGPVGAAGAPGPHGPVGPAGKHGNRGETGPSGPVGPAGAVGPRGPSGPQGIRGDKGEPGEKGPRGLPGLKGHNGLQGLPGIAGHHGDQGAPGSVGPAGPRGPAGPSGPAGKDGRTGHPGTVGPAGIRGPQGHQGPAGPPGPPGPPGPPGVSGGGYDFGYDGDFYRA

Take GQWTCSGDEYTWHCN[dY]E (disulfide 5-14 (inferred); not fully specified (C-terminus)) [SEQ ID NO: 177]: the % Collagen Binding, Dried Human in assay [1] turned out to be 30%. Moreover, the % Collagen Binding, Dried Rat in assay [2] came to 27%.

GQWTCSGD[dE]YTWHCNYE (disulfide 5-14 (inferred); not fully specified (C-terminus)) [SEQ ID NO: 170] registered a % Collagen Binding, Dried Human in assay [1] of 49%. For the same molecule, the % Collagen Binding, Dried Rat in assay [2] amounted to 35%.

GQWTCSGDEYT[dW]HCNYE (disulfide 5-14 (inferred); not fully specified (C-terminus)) [SEQ ID NO: 173] yielded a % Collagen Binding, Dried Human in assay [1] of 5%. The % Collagen Binding, Dried Rat in assay [2] was found to be 4%.

B1: SEQ ID NO: 181 (peptide)
peptide: DWTCS[dR]DEYTWHCNYE
modifications: disulfide 4-13 (inferred); not fully specified (C-terminus); printed as D W T C S r D E Y T W H C N Y E
As to B1, the % Collagen Binding, Dried Human in assay [1] stood at 87%. Moreover, in assay [2], the % Collagen Binding, Dried Rat was 86%.

GQWTCSG[dD]EYTWHCNYE (disulfide 5-14 (inferred); not fully specified (C-terminus)) [SEQ ID NO: 169] displayed a % Collagen Binding, Dried Human in assay [1] of 11%. The molecule further showed a % Collagen Binding, Dried Rat in assay [2] of 4%.

Regarding GQWTC[dS]GDEYTWHCNYE (disulfide 5-14 (inferred)) [SEQ ID NO: 168], in assay [1], the % Collagen Binding, Dried Human was 3%. In assay [2], this molecule gave a % Collagen Binding, Dried Rat of 2%.

Molecule GQWTCSGDEY[dT]WHCNYE (disulfide 5-14 (inferred); not fully specified (C-terminus)) [SEQ ID NO: 172] displayed a % Collagen Binding, Dried Human in assay [1] of 9%. This molecule also returned a % Collagen Binding, Dried Rat in assay [2] of 8%.

B2: SEQ ID NO: 179 (peptide)
peptide: DWTCS[dA]DEYTWHCNYE
modifications: disulfide 4-13 (inferred); not fully specified (C-terminus); printed as D W T C S a D E Y T W H C N Y E
With B2, the % Collagen Binding, Dried Human in assay [1] was determined as 81%. The % Collagen Binding, Dried Rat in assay [2] amounted to 75%.

B3: SEQ ID NO: 183 (peptide)
peptide: DWTCS[dL]DEYTWHCNYE
modifications: disulfide 4-13 (inferred); not fully specified (C-terminus); printed as D W T C S l D E Y T W H C N Y E
Turning to B3, the % Collagen Binding, Dried Human in assay [1] was found to be 73%. Moreover, the % Collagen Binding, Dried Rat in assay [2] was 63%.

In turn, GQWTCSGDEYTWHC[dN]YE (disulfide 5-14 (inferred); not fully specified (C-terminus)) [SEQ ID NO: 176] had a % Collagen Binding, Dried Human in assay [1] of 2%. Moreover, the % Collagen Binding, Dried Rat in assay [2] amounted to 2%.

B4: SEQ ID NO: 182 (peptide)
peptide: DWTCS[dY]DEYTWHCNYE
modifications: disulfide 4-13 (inferred); not fully specified (C-terminus); printed as D W T C S y D E Y T W H C N Y E
On to B4, for which, in assay [1], the % Collagen Binding, Dried Human amounted to 89%. The % Collagen Binding, Dried Rat in assay [2] was 86%.

B5: Type IV human collagen (soluble competitor protein), P02462 28-1669; P08572 26-1712 (protein)
chain 1: not shown
chain 2: FLAQSVLAGVKKFDVPCGGRDCSGGCQCYPEKGGRGQPGPVGPQGYNGPPGLQGFPGLQGRKGDKGERGAPGVTGPKGDVGARGVSGFPGADGIPGHPGQGGPRGRPGYDGCNGTQGDSGPQGPPGSEGFTGPPGPQGPKGQKGEPYALPKEERDRYRGEPGEPGLVGFQGPPGRPGHVGQMGPVGAPGRPGPPGPPGPKGQQGNRGLGFYGVKGEKGDVGQPGPNGIPSDTLHPIIAPTGVTFHPDQYKGEKGSEGEPGIRGISLKGEEGIMGFPGLRGYPGLSGEKGSPGQKGSRGLDGYQGPDGPRGPKGEAGDPGPPGLPAYSPHPSLAKGARGDPGFPGAQGEPGSQGEPGDPGLPGPPGLSIGDGDQRRGLPGEMGPKGFIGDPGIPALYGGPPGPDGKRGPPGPPGLPGPPGPDGFLFGLKGAKGRAGFPGLPGSPGARGPKGWKGDAGECRCTEGDEAIKGLPGLPGPKGFAGINGEPGRKGDRGDPGQHGLPGFPGLKGVPGNIGAPGPKGAKGDSRTITTKGERGQPGVPGVPGMKGDDGSPGRDGLDGFPGLPGPPGDGIKGPPGDPGYPGIPGTKGTPGEMGPPGLGLPGLKGQRGFPGDAGLPGPPGFLGPPGPAGTPGQIDCDTDVKRAVGGDRQEAIQPGCIGGPKGLPGLPGPPGPTGAKGLRGIPGFAGADGGPGPRGLPGDAGREGFPGPPGFIGPRGSKGAVGLPGPDGSPGPIGLPGPDGPPGERGLPGEVLGAQPGPRGDAGVPGQPGLKGLPGDRGPPGFRGSQGMPGMPGLKGQPGLPGPSGQPGLYGPPGLHGFPGAPGQEGPLGLPGIPGREGLPGDRGDPGDTGAPGPVGMKGLSGDRGDAGFTGEQGHPGSPGFKGIDGMPGTPGLKGDRGSPGMDGFQGMPGLKGRPGFPGSKGEAGFFGIPGLKGLAGEPGFKGSRGDPGPPGPPPVILPGMKDIKGEKGDEGPMGLKGYLGAKGIQGMPGIPGLSGIPGLPGRPGHIKGVKGDIGVPGIPGLPGFPGVAGPPGITGFPGFIGSRGDKGAPGRAGLYGEIGATGDFGDIGDTINLPGRPGLKGERGTTGIPGLKGFFGEKGTEGDIGFPGITGVTGVQGPPGLKGQTGFPGLTGPPGSQGELGRIGLPGGKGDDGWPGAPGLPGFPGLRGIRGLHGLPGTKGFPGSPGSDIHGDPGFPGPPGERGDPGEANTLPGPVGVPGQKGDQGAPGERGPPGSPGLQGFPGITPPSNISGAPGDKGAPGIFGLKGYRGPPGPPGSAALPGSKGDTGNPGAPGTPGTKGWAGDSGPQGRPGVFGLPGEKGPRGEQGFMGNTGPTGAVGDRGPKGPKGDPGFPGAPGTVGAPGIAGIPQKIAVQPGTVGPQGRRGPPGAPGEMGPQGPPGEPGFRGAPGKAGPQGRGGVSAVPGFRGDEGPIGHQGPIGQEGAPGRPGSPGLPGMPGRSVSIGYLLVKHSQTDQEPMCPVGMNKLWSGYSLLYFEGQEKAHNQDLGLAGSCLARFSTMPFLYCNPGDVCYYASRNDKSYWLSTTAPLPMMPVAEDEIKPYISRCSVCEAPAIAIAVHSQDVSIPHCPAGWRSLWIGYSFLMHTAAGDEGGGQSLVSPGSCLEDFRATPFIECNGGRGTCHYYANKYSFWLTTIPEQSFQGSPSADTLKAGLIRTHISRCQVCMKNL
modifications: here or on the partner: as printed: Gd^T-K(Gd^D)-K(Gd^D)-W-H-C-Y-T-Y-F-P-H-H-Y-C-V-Y-G; Gd^T = GdDTPA-thiourea, Gd^D = GdDOTAGA; cyclic through a disulfide between the two cysteines
For the molecule B5, in assay [3], the % of Comp ID No 1014 bound to insoluble rat collagen in presence of the competitor came out at 28.1%. For the same molecule, the % of Comp ID No 1014 bound to insoluble human collagen in presence of the competitor in assay [4] amounted to 59.9%.

The molecule GQWTCSGDE[dY]TWHCNYE (disulfide 5-14 (inferred); not fully specified (C-terminus)) [SEQ ID NO: 171] yielded a % Collagen Binding, Dried Human in assay [1] of 13%. Besides, in assay [2], the % Collagen Binding, Dried Rat worked out at 6%.

B6: SEQ ID NO: 180 (peptide)
peptide: DWTCS[dS]DEYTWHCNYE
modifications: disulfide 4-13 (inferred); not fully specified (C-terminus); printed as D W T C S s D E Y T W H C N Y E
In turn, B6 showed a % Collagen Binding, Dried Human in assay [1] of 81%. In assay [2], this molecule had a % Collagen Binding, Dried Rat of 72%.

GQWTCSGDEYTW[dH]CNYE (disulfide 5-14 (inferred); not fully specified (C-terminus)) [SEQ ID NO: 174] registered a % Collagen Binding, Dried Human in assay [1] of 5%. The same molecule registered a % Collagen Binding, Dried Rat in assay [2] of 0%.

The record behind these values is patent US20120114557A1.
